# From patent US8927500
# Bridges are numbered along the chain shown (N, C = ends). [ ]: non-standard residue; d: D form. pY = N[C@@H](Cc1ccc(OP(=O)(O)O)cc1)C(=O)O; R8 = C=CCCCCCC[C@@](C)(N)C(=O)O; hLeu = CC(C)CC[C@H](N)C(=O)O; S5 = C=CCCC[C@](C)(N)C(=O)O; Cou6 = not defined here; Cou8 = not defined here; βAla = NCCC(=O)O
# Columns and labels:
# MDMX (In-house, 40 kD) = target: T1, MDMX (In-house, 40 kD) (UniProt O15151); assay: competitive fluorescence polarization, MDMX with FAM-labeled linear peptide; graded scale of paragraph 458
# T1 sequence (looked up): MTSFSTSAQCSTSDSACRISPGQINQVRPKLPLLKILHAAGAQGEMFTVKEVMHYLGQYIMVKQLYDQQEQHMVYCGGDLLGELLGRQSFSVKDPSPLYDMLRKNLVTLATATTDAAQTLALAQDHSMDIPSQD
# MDM2 (In-house, 41 kD) = MDM2 (In-house, 41 kD) (UniProt Q00987); assay: competitive fluorescence polarization, MDM2 with FAM-labeled linear peptide; graded scale of paragraph 458
# Sequence of MDM2 (In-house, 41 kD) (Q00987 1-138 limits assumed): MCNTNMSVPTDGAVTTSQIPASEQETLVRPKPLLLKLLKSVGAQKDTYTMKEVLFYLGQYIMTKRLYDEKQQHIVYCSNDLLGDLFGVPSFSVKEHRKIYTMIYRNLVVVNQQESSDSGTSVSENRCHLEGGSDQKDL
# [1] = target: T2, MDMX (In-house, 40 kD), O15151; assay: competitive FP vs FAM-labelled linear peptide; grade + = greater than 1000 nM; settings: remark: other sources report otherwise
# T2 chain: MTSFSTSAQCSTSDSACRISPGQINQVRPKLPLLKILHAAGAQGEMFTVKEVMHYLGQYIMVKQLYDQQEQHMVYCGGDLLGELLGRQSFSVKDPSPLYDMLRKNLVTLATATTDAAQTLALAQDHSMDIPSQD
# [2] = target: MDM2 (In-house, 41 kD), Q00987; assay: as above; settings: remark: other sources report otherwise
# Sequence of MDM2 (In-house, 41 kD), Q00987 (Q00987 1-138 limits assumed): as the sequence (Q00987 1-138 limits assumed) above
Binder,"Ki (MDMX (In-house, 40 kD)) [µM]","Ki (MDM2 (In-house, 41 kD)) [µM]",IC50 [1] [µM],Ki [1] [µM],Ki [2] [µM]
"Ac-LTF[R8]E[pY]WAQL[S5]AAAAA[dA]-NH2 (staple 4-11) [peptidomimetic macrocycle SP615, Ac-LTF$r8EpYWAQL$AAAAAa-NH2]",< 0.01,< 0.01,–,–,–
Cou8-[βAla]LTF[R8]EYWAQ[hLeu][S5]SAA-NH2 (staple 5-12; reading uncertain) [SP447],–,–,> 1,> 1,–
Ac-LTA[R8]EYWAQL[S5]AAAAA[dA]-NH2 (staple 4-11) [SP560],–,–,–,> 1,> 1
Cou6-[βAla]LTF[R8]EYWAQ[hLeu][S5]SAA-NH2 (staple 5-12; reading uncertain) [SP446],–,–,> 1,> 1,–
